Reference: patent publication US20230357704A1 (Alliance for Sustainable Energy, LLC, priority 2022, published 2023)
Substitutions are numbered along the chain they refer to. In names and notes the source's numbering stands.

Legend:
P. renovo [1] = assay: Formate utilization, HPLC analysis of culture supernatant; format: cell-based, Picochlorum renovo; conditions: for formate consumption: 10 mM sodium formate, evaporative losses taken into account; for formate consumed from the culture media: 25 mM formate, 2% CO2, after 85 hours of cultivation
Protocol: Six μL of filtered cell-free supernatant was used for injection into the Bio-Rad HPX-87H (300×7.8 mm) ion exchange column. Elution of the organic acid was carried out with 0.01 N sulfuric acid at a flow rate of 0.6 mL per min. The column temperature was maintained at 55° C.

P. renovo [2] = assay: Growth of FDH-expressing P. renovo in media supplemented with formate; format: cell-based, Picochlorum renovo; conditions: for growth in media supplemented with formate: 25 mM formate, 2% CO2, pH 6.0; for growth on sodium formate: up to 75 mM sodium formate, 2% CO2, pH=6 Bis-Tris, 5 mM NH4Cl
Protocol: Cultures were mixed via shaking (170 rpm) at 33° C., 2% CO2, and 125 uE cool white LED lighting.
FDH variants utilized were mutated from the Pseudomonas sp. 101 FDH, specifically NAD+ utilizing variant (A198G) and NADP+ utilizing variant (A198G/D221Q/C255A/H379K/S380V). FDH transformation vectors were prepared by Twist Bioscience, cloning a ribosomal binding site ([…]) and codon optimized FDH downstream of the ptxD selectable marker in our previously described chloroplast transformation vector. P. renovo transformation was carried out as described previously, with the exception that Critter Technology binding and precipitation buffers were used according to the manufacturers recommendations to bind DNA (plasmid prepared by Twist Bioscience) onto the gold microcarriers for biolistic transformation.

B1: NAD+-utilizing FDH variant: Pseudomonas sp. 101 formate dehydrogenase mutant A198G, SEQ ID NO: 30, expressed in P. renovo chloroplast (protein)
chain: MAKVLCVLYDDPVDGYPKTYARDDLPKIDHYPGGQTLPTPKAIDFTPGQLLGSVSGELGLRKYLESNGHTLVVTSDKDGPDSVFERELVDADVVISQPFWPAYLTPERIAKAKNLKLALTAGIGSDHVDLQSAIDRNVTVAEVTYCNSISVAEHVVMMILSLVRNYLPSHEWARKGGWNIADCVSHAYDLEAMHVGTVGAGRIGLAVLRRLAPFDVHLHYTQRHRLPESVEKELNLTWHATREDMYPVCDVVTLNAPLHPETEHMINDETLKLFKRGAYIVNTARGKLCDRDAVARALESGRLAGYAGDVWFPQPAPKDHPWRTMPYNGMTPHISGTTLTAQARYAAGTREILECFFEGRPIRDEYLIVQGGALAGTGAKVYSKGNATGGSEEAAKFKKAV
modifications: Pseudomonas sp. 101
formate concentration in culture (P. renovo [1]; 5 mM formate added (initial 6.2 mM), ambient CO2 (0.04%), after 312 hours, HPLC): 1.7 mM | utilization of the added formate (P. renovo [1]; 5 mM formate, ambient CO2 (0.04%), 312 hours): 74+/−2% | formate consumption (P. renovo [1]; 2% CO2, at 85 hours): 77±2% | formate consumption (P. renovo [1]; 2% CO2, at 132 hours): 88±1% | formate consumed from the culture media (P. renovo [1]): 48±1% | growth when supplemented with formate (P. renovo [2]; 5 mM formate, ambient CO2 (0.04%), versus no formate supplementation): enhanced growth | optical density relative to wild-type (P. renovo [2]; 5 mM formate, ambient CO2 (0.04%), versus unsupplemented wild-type): > 3.8 × | culture density (P. renovo [2]; 10 mM formate compared to 25 mM formate, 2% CO2): higher culture density | growth in media supplemented with formate (P. renovo [2]): Growth in media supplemented with 25 mM formate was observed

B2: NADP+-utilizing FDH variant: Pseudomonas sp. 101 formate dehydrogenase mutant A198G/D221Q/C255A/H379K/S380V, SEQ ID NO: 32, expressed in P. renovo chloroplast (protein)
chain: MSDPTLAQPHLVEVHTTLETVVTTHNHNHRPSINASGEKKKIVGVFYKGNEYAKLNPNFVGCVEGALGIREWLESQGHQYIVTDDKEGPDSELEKHIPDAHVIISTPFHPAYVTAERIKKAQKLELLLTAGIGSDHVDLKAAAAAGLTVAEVTGSNVVSVAEDELMRILILMRNFLPGYHQAVKGEWNVAGIAHRAYDLEGKTVGTVGAGRIGKLLLQRLKPFNCNLLYFDRLRIDPELEKEIGAKFEEDLDAMLPKCDVIVINTPLTEQTRGLFDKNRIAKCKKGVLIVNNARGAIADTQAIADACSSGHVAGYSGDVWDPQPAPKDHPWRYMPNHAMTPHISGTTIDAQLRYAAGVKDMLDRHFKGEDFPEQNYIVKEGQLASQYR
modifications: Pseudomonas sp. 101
formate consumed from the culture media (P. renovo [1]): no formate utilization | growth in media supplemented with formate (P. renovo [2]): no growth | growth in media supplemented with formate (P. renovo [2]; listed as NADP+ utilizing FDH variant): did not grow

B3: SV26: Candida boidinii FDH (C23S), SEQ ID NO: 14 (protein, listed as Candida boidinii)
chain: MKIVLVLYDAGKHAADEEKLYGSTENKLGIANWLKDQGHELITTSDKEGETSELDKHIPDADIIITTPFHPAYITKERLDKAKNLKLVVVAGVGSDHIDLDYINQTGKKISVLEVTGSNVVSVAEHVVMTMLVLVRNFVPAHEQIINHDWEVAAIAKDAYDIEGKTIATIGAGRIGYRVLERLLPFNPKELLYYDYQALPKEAEEKVGARRVENIEELVAQADIVTVNAPLHAGTKGLINKELLSKFKKGAWLVNTARGAICVAEDVAAALESGQLRGYGGDVWFPQPAPKDHPWRDMRNKYGAGNAMTPHYSGTTLDAQTRYAEGTKNILESFFTGKFDYRPQDIILLNGEYVTKAYGKHDKK
growth on sodium formate (P. renovo [2]): able to grow

B4: SV27: Candida boidinii FDH (C23S/C262A), SEQ ID NO: 16 (protein, listed as Candida boidinii)
chain: B3 chain with C262A
growth on sodium formate (P. renovo [2]): able to grow
